Laboratory results taken from paper PMC5662768 (Scientific Reports, 2017).

Target: T1, glycosylated extracellular domain of human CD38 (aa 46-300) (Homo sapiens, UniProt P28907, glycosylation sites intact (glycosylated))
T1 construct: CD38, human, extracellular domain aa 46-300 with intact glycosylation sites; Amine-coupled to AR2G biosensors in the BLI experiments; also called recombinant human CD38; ectodomain of human CD38; source: secretory protein from the pCSE2.5 vector
Experiment: BLI; Octet RED384; recombinant human CD38 amine-coupled to AR2G biosensors; 100 nM and 1 uM nanobody, 5 min association, 10 min dissociation; 25 C; HBS-EP+ pH 7.4; fit 1:1; off-rates only
Conditions: both partners purified

koff	Binder
0.0009 s⁻¹	CD38-specific nanobody MU1053 (family 14), monovalent, from HEK-6E cells (VHH, structure of MU1053 with CD38 is in PDB 5F1O (nanobody chain); also called l-15.3a; source: HEK-6E, transiently transfected (pCSE2.5), purified (Ni-NTA); not shown: His6, C-terminal, kept; Myc, C-terminal, kept) VHH: DVQLQESGGGLVQAGGSLRLSCTGSGRTFRNYPMAWFRQAPGKEREFVAGITWVGASTLYADFAKGRFTISRDNAKNTVYLQMNSLKPEDTAVYSCAAGRGIVAGRIPAEYADWGQGTQVTVSS
0.0044 s⁻¹	single chain variable fragment (scFv) of daratumumab (scFv, V domains shown, VH domain of daratumumab; 15GS linker; VL domain of daratumumab; Order VH - linker - VL as the methods tell it; also called Dara scFv; Daratumumab scFv; source: HEK-6E, transiently transfected (pCSE2.5)) VH: EVQLLESGGGLVQPGGSLRLSCAVSGFTFNSFAMSWVRQAPGKGLEWVSAISGSGGGTYYADSVKGRFTISRDNSKNTLYLQMNSLRAEDTAVYFCAKDKILWFGEPVFDYWGQGTLVTVSS VL: not shown
